Substitutions are numbered along the chain they refer to. Read-outs that look alike come from different tables or passages of the source.
T1: mouse IL23R (mouse, UniProt Q8K4B4 24-374, limits assumed)
T1 sequence (looked up): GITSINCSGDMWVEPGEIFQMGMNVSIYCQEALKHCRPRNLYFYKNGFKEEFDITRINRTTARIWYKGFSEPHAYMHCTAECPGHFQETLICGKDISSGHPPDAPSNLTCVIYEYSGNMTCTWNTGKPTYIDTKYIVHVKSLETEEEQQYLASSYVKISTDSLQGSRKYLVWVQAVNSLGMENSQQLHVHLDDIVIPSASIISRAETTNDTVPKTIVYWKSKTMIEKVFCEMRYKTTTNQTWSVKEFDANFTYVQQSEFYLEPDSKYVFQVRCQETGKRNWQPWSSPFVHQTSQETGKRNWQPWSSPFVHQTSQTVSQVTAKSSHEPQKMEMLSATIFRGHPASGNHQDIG

T2: linear 15mer peptide derived from human CD3ε residues 2-16 (wild type of the substitution library, Set 1) (human)
T2 construct: Probed as a saturation mutagenesis library on a peptide array
T2 peptide: DGNEEMGGITQTPYK

T3: linear 15mer peptide derived from cynomolgus CD3ε residues 2-16 (wild type of the substitution library, Set 2) (cynomolgus)
T3 construct: Probed as a saturation mutagenesis library on a peptide array
T3 peptide: DGNEEMGSITQTPYQ

T4: linear 15mer peptides derived from human CD3ε residues 5-20 (Set 3) (human)
T4 construct: also called peptides spanning residues 5-20
T4 peptide: EEMGGITQTPYKVSIS

T5: linear 15mer peptides derived from cynomolgus CD3ε residues 5-20 (Set 4) (cynomolgus)
T5 construct: also called peptides spanning residues 5-20
T5 peptide: EEMGSITQTPYQVSIS

B1: PRO387 (bispecific antibody)
chain: DIQMTQSPSSLSASVGDRVTITCQASENIYSFLAWYQQKPGKAPKLLIYSASKLAAGVPSRFSGSGSGTDFTLTISSLQPEDFATYYCQQTNRYSNPDIYNVFGQGTKLTVLGGGGGSEVQLVESGGGLVQPGKSLKLSCEASGFTFSGYGMHWVRQAPGRGLESVAYITSSSINIKYADAVKGRFTVSRDNAKNLLFLQMNILKSEDTAMYYCARFDWDKNYWGQGTMVTVSSGGGGSGGGGSGGGGSGGGGSDIQMTQSPSSLPASLGDRVTINCQASQDISNYLNWYQQKPGKAPKLLIYYTNKLADGVPSRFSGSGSGRDSSFTISSLESEDIGSYYCQQYYNYPWTFGPGTKLEIKRGGGGSEVQLVESGGGLVQPGGSLRLSCAASGIDFNSNYYMCWVRQAPGKGLEWIGCIYVGSHVNTYYANWAKGRFTISRDNSKNTVYLQMNSLRAEDTAVYYCATSGSSVLYFKFWGQGTLVTVSS
notes: scDb VLA-L1-VHB-L2-VLB-L3-VHA, A = anti-IL23R, B = anti-mouse CD3ε 2C11; also called bispecific single-chain diabody surrogate (scDb); anti-IL23R 14-11-D07-sc01 × anti-mCD3 2C11
B2: PRO400 (Fab, V domains shown)
VH: EVQLVESGGGLVQPGKSLKLSCEASGFTFSGYGMHWVRQAPGRGLESVAYITSSSINIKYADAVKGRFTVSRDNAKNLLFLQMNILKSEDTAMYYCARFDWDKNYWGQGTMVTVSS
VL: DIQMTQSPSSLPASLGDRVTINCQASQDISNYLNWYQQKPGKAPKLLIYYTNKLADGVPSRFSGSGSGRDSSFTISSLESEDIGSYYCQQYYNYPWTFGPGTKLEIKR
notes: Chimeric Fab: hamster 2C11 variable domains with human CL and CH1; also called anti-mCD3 Fab; 2C11 Fab
B3: clone-01 (antibody, V domains shown)
VH: QSVEESGGRLVTPGTPLTLTCTVSGFPLSSYAMIWVRQAPGKGLEWIGMILRAGNIYYASWAKGRFTISKTSTTVDLKITSPTTEDTATYFCARRQYNTDGYPIGIGDLWGPGTLVTVSS
VL: AQVLTQTASSVSAAVGGTVTISCQSSESVYNNNRLSWFQQKPGQPPKQLIYSASSLASGVPSRFKGSGSGTQFTLTISDLECDDAATYYCQGEFSCSSADCFTFGGGTEVVVKG
notes: Recombinant rabbit IgG; also called purified monoclonal rabbit anti-CD3ε antibody clone-01
B4: clone-04 (antibody, V domains shown)
VH: QSLEESGGRLVKPDETLTLTCTVSGFPLSSYAMGWFRQAPGKGLEWIGMILRSDNTYYASWAKGRFTISKTSTTVDLKITSPTTEDTATYFCARRHYNASGNPIAIGDLWGPGTLVTVSS
VL: B3 VL with A8P, S22N, E27Q, Q48L, S52T, A53T, Q72E, D83A, S98R, T103N
notes: Recombinant rabbit IgG; also called Clone 4
B5: clone-10 (antibody, V domains shown)
VH: B3 VH with V3L, Y31F, I34L, L51M, G54H, I56M, K78E, Q96H, D100Y, G105A
VL: B3 VL with A8P, V19A, S26N, S28N, V29I, N31S, P42A, K47N
notes: Recombinant rabbit IgG
B6: clone-11 (antibody, V domains shown)
VH: QSLEESGGRLVTPGTPLTLTCTVSGFPLSSYAMGWFRQAPGKGLEWIGMILRADNTYYASWVNGRFTISKTSTTVDLKITSPTTEDTATYFCARRHYNTYGYPVAIGDLWGPGTLVTVSS
VL: B3 VL with A8P, S22N, E27Q, Q48L, S52T, Q72E, D83A
notes: Recombinant rabbit IgG
B7: clone-12 (antibody, V domains shown)
VH: B3 VH with V3L, S30R, I34L, M49L, L51T, G54D, I56K, K78E, Q96H, G105A
VL: B3 VL with A8P, A14T, S26N, S28N, V29I, N31S, Q48L, S95N, S97N
notes: Recombinant rabbit IgG
B8: clone-09 (antibody, V domains shown)
VH: QSLEESGGRLVTPGTPLTLTCTVSGFPLNRYAMLWVRQAPGKGLEWIGLITRADKKYYASWAKGRFTISKTSTTVDLEITGPTTEDTATYFCARRHYNTDGYPVAIGDLWGPGTLVTVSS
VL: B3 VL with A8P, S26N, S28N, V29I, N31S, K47N, S95N, S97N
notes: Recombinant rabbit IgG

Experiments:
[1] = target: human CD3ε expressed on the cell surface of T cells (Jurkat cells; human CD8+ T cells) (human) (UniProt P07766); assay: cell-based or functional assay
mouse IL23R = target: T1, mouse IL23R; assay: SPR
mouse CD3ε [2] = target: T6, mouse CD3ε (mouse, UniProt P22646 22-108, limits assumed); assay: SPR
mouse CD3ε [3] = target: T6, mouse CD3ε; assay: SPR; remark: listed apart in the source
[4] = target: T7, cynomolgus monkey heterodimeric single-chain CD3εγ extracellular domain (cynomolgus monkey, UniProt Q95LI5 22-117; Q95LI7 23-113); assay: SPR; ratio of the KDs for cyno and human single-chain CD3εγ
[5] = target: T7, cynomolgus monkey heterodimeric …; assay: SPR, rabbit IgG captured, cyno single-chain CD3εγ ECD injected
[6] = target: T8, human heterodimeric single-chain CD3εγ extracellular domain (human, UniProt P07766 23-126; P09693 23-116); assay: SPR, rabbit IgG captured, human single-chain CD3εγ ECD injected
T8 construct: extracellular domain; Produced in-house; also called scCD3γε; human CD3ge
Description: Binding affinities of monoclonal rabbit anti-CD3 antibodies were measured by surface plasmon resonance (SPR) using a MASS-1 SPR instrument (Sierra Sensors). […] Rabbit monoclonal antibodies were captured by the immobilized anti-rabbit IgG antibody. Two-fold serial dilutions of human heterodimeric single-chain CD3εγ extracellular domain (produced in-house) ranging from 90 to 2.81 nM were injected into the flow cells for 3 min and dissociation of the protein from the IgG captured on the sensor chip was allowed to proceed for 5 min. After each injection cycle, surfaces were regenerated with two injections of 10 mM glycine-HCl. The apparent dissociation (kd) and association (ka) rate constants and the apparent dissociation equilibrium constant (KD) were calculated with the MASS-1 analysis software (Analyzer, Sierra Sensors) using one-to-one Langmuir binding model.

[7] = target: T9, human CD3ε expressed on the cell surface of T cells (Jurkat cells; human CD8+ T cells) (human, UniProt P07766 23-207); assay: cell-based ELISA on Jurkat cells, CD3ε-deficient Jurkat subtracted
T9 construct: whole, on cells; also called native CD3ε embedded in the TCR complex on Jurkat cells
Description: Jurkat cells (clone E6-1), a human T cell line, were seeded at 300,000 cells/well in round bottom 96-well plates in 100 μl phosphate-buffered saline (PBS) containing 10% FBS. Five-fold serial dilutions of anti-CD3 rabbit monoclonal antibodies ranging from 90 nM to 0.0058 nM were added to the plates in 100 μl PBS containing 10% FBS. […] This secondary antibody was linked to the enzyme horseradish peroxidase (HRP). HRP activity was measured by addition of TMB substrate (3,3′,5,5′-tetramethylbenzidine, KPL, Cat. No. 53-00-00), which in a colorimetric reaction is processed by the HRP. The color intensity of the processed substrate is directly proportional to the amount of anti-CD3 antibody bound to Jurkat cells. To quantify color intensity, light absorbance (optical density) at the respective wave length was measured using a microtiter plate reader (Infinity reader M200 Pro, Tecan).
To correct for unspecific binding of the antibodies to unknown components presented on the cell surface of Jurkat cells, a CD3ε deficient derivative of the Jurkat T cell line (J.RT3-T3.5) was used. Binding of the monoclonal antibodies to this cell line was measured as described above for the Jurkat cells. For quantification of specific binding to Jurkat cells, the optical density for binding to the negative control was subtracted from the optical density for binding to Jurkat cells. Data were analyzed using a four-parameter logistic curve fit using the Softmax Data Analysis Software (Molecular Devices), and the molar concentration of anti-CD3 antibody required to reach 50% binding (EC₅₀, mid-OD of the standard curve) was derived from dose response curves.

[8] = target: T2, linear 15mer peptide derived from human …; assay: 15mer peptide array ELISA
[9] = target: T3, linear 15mer peptide derived from …; assay: 15mer peptide array ELISA
[10] = target: T4, linear 15mer peptides derived from …; assay: peptide array ELISA, Set 3
Description: (§1) The binding of the antibodies to each of the synthesized peptides was tested by ELISA. The peptide arrays were incubated with primary antibody solution (overnight at 4° C.). After washing, the peptide arrays were incubated with a 1/1000 dilution of an antibody peroxidase conjugate (SBA, cat.nr.2010-05) for one hour at 25° C. After washing, the peroxidase substrate 2,2′-azino-di-3-ethylbenzthiazoline sulfonate (ABTS) and 2 μl/ml of 3% H₂O₂ were added. After one hour, the color development was measured. The color development was quantified with a charge coupled device (CCD)—camera and an image processing system.

[11] = target: T5, linear 15mer peptides derived from …; assay: peptide array ELISA, Set 4
Description: as §1

[12] = target: T9, human CD3ε expressed on the cell …; assay: cell-based or functional assay

T7 sequence (Q95LI7 other isoform, or with tags, fused parts or gaps): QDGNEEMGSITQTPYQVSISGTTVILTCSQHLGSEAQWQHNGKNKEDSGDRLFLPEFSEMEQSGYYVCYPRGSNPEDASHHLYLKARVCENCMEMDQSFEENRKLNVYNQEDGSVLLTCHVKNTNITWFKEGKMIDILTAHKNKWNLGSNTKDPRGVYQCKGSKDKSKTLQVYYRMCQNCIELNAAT
T6 sequence (P22646 22-108 limits assumed): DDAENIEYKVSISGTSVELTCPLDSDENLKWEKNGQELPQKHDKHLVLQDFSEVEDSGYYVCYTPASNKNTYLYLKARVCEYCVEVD

KD (human)/KD (cyno) [4] | Kd [5] [nM] | koff [5] [s⁻¹] | kon [5] [M⁻¹ s⁻¹] | Kd [6] [nM] | koff [6] [s⁻¹] | kon [6] [M⁻¹ s⁻¹] | EC50 [7] [nM] | other results | Molecule
– | – | – | – | – | – | – | – | Fold increase in CD69 expression [MFI normalized to neg. ctrl.], 1.25 µg/ml anti-CD3 IgG [1]: 1.6 fold; Fold increase in CD69 expression [MFI normalized to neg. ctrl.], 5 µg/ml anti-CD3 IgG [1]: 2.2 fold; Fold increase in CD69 expression [MFI normalized to neg. ctrl.], 20 µg/ml anti-CD3 IgG [1]: 3 fold | TR66 (antibody)
– | – | – | – | – | – | – | – | Fold increase in CD69 expression [MFI normalized to neg. ctrl.], 1.25 µg/ml anti-CD3 IgG [1]: 1.8 fold; Fold increase in CD69 expression [MFI normalized to neg. ctrl.], 5 µg/ml anti-CD3 IgG [1]: 2.5 fold; Fold increase in CD69 expression [MFI normalized to neg. ctrl.], 20 µg/ml anti-CD3 IgG [1]: 3.1 fold | OKT3 (antibody)
– | – | – | – | – | – | – | – | Kd (mouse IL23R): 4.66 nM; koff (mouse IL23R): 0.00326 s⁻¹; kon (mouse IL23R): 701000 M⁻¹ s⁻¹; Kd (mouse CD3ε [2]): 9.11 nM; koff (mouse CD3ε [2]): 0.00213 s⁻¹; kon (mouse CD3ε [2]): 233000 M⁻¹ s⁻¹ | B1
– | – | – | – | – | – | – | – | Kd (mouse CD3ε [3]): 11.4 nM; koff (mouse CD3ε [3]): 0.00266 s⁻¹; kon (mouse CD3ε [3]): 233000 M⁻¹ s⁻¹ | B2
3 | 10.2 | 0.00392 | 386000 | 2.97 | 0.00159 | 536000 | 0.58 | – | B3
36 | 4.12 | 0.00266 | 646000 | 0.113 | 9.88e-05 | 873000 | 1.87 | binding result [8]: binds; binding result [9]: binds; binding result [10]: no binding; binding result [11]: no binding; Fold increase in CD69 expression [MFI normalized to neg. ctrl.], 1.25 µg/ml anti-CD3 IgG [12]: 2.6 fold; Fold increase in CD69 expression [MFI normalized to neg. ctrl.], 5 µg/ml anti-CD3 IgG [12]: 3.5 fold; Fold increase in CD69 expression [MFI normalized to neg. ctrl.], 20 µg/ml anti-CD3 IgG [12]: 7.8 fold | B4
7 | 10.9 | 0.00349 | 321000 | 1.66 | 0.00126 | 757000 | 0.35 | Fold increase in CD69 expression [MFI normalized to neg. ctrl.], 1.25 µg/ml anti-CD3 IgG [12]: 2.6 fold; Fold increase in CD69 expression [MFI normalized to neg. ctrl.], 5 µg/ml anti-CD3 IgG [12]: 4.2 fold; Fold increase in CD69 expression [MFI normalized to neg. ctrl.], 20 µg/ml anti-CD3 IgG [12]: 6.2 fold | B5
3 | 10 | 0.00365 | 363000 | 3.13 | 0.00133 | 425000 | 0.28 | – | B6
20 | 22.2 | 0.00314 | 142000 | 1.11 | 0.000798 | 721000 | 0.59 | – | B7
10 | 11.6 | 0.00269 | 232000 | 1.14 | 0.000688 | 601000 | 0.82 | – | B8

Reference: patent US20180244777A1 (NUMAB THERAPEUTICS, published 2018)
